Assay results published in patent publication US20210070881A1 (DENALI THERAPEUTICS, published 2021).
Positions count from the first letter of the chain named. Like-named read-outs stand apart in the source and are kept apart here. One block for each binder: values may come before it.

Columns and labels:
[1] = target: T1, recombinant BACE1 (BACE1 extracellular domain, R&D Systems Cat#931-AS) (UniProt P56817 22-457); assay: SPR Biacore
T1 construct: extracellular domain; also called BACE1 extracellular domain protein

[2] = target: T1, recombinant BACE1 (BACE1 extracellular …); assay: SPR Biacore; remark: listed apart in the source
[3] = target: BACE1 in primary human neurons (human, UniProt P56817 46-501); assay: cell-based or functional assay
[4] = target: cellular BACE1 in CHOK1-huAPP cells; assay: cell-based or functional assay
[5] = target: cellular BACE1 in CHOK1-huAPP cells; assay: cell-based or functional assay; remark: listed apart in the source
[6] = target: cellular BACE1 in CHOK1-huAPP cells; assay: cell-based or functional assay; remark: listed apart in the source
[7] = target: T1, recombinant BACE1 (BACE1 extracellular …); assay: SPR Biacore T200, IgG captured, BACE1 analyte
Description: The affinity of chimeric IgG antibodies for recombinant BACE1 was determined by surface plasmon resonance using a Biacore™ T200 instrument. Biacore™ Series S CMS sensor chips were immobilized with monoclonal mouse anti-human IgG (Fc) antibody (e.g., using a human antibody capture kit from GE Healthcare). 1 μg/mL of antibody was captured for 1 minute on each flow cell and serial 3-fold dilutions of recombinant BACE1 were injected at a flow rate of 30 μL/min. Each sample was analyzed with a 3-minute association and a 10-minute dissociation. After each injection, the chip was regenerated using 3M MgCl₂. Binding response was corrected by subtracting the RU from a flow cell capturing an irrelevant IgG at similar density. A 1:1 Langmuir model of simultaneous fitting of kₒₙ and koff was used for analysis of kinetics.

[8] = target: T1, recombinant BACE1 (BACE1 extracellular …); assay: SPR Biacore 8K, antibody captured, BACE1 analyte
Description: (§1) The binding affinities of the affinity matured humanized 2H8 variants for BACE1 were determined by surface plasmon resonance using a Biacore™ 8K instrument. […] The binding was monitored for 300 seconds and then dissociation was monitored for 600+ seconds in HBS-EP+ running buffer (GE Healthcare Life Sciences, BR100669). Binding response was corrected by subtracting the RU from a blank flow cell. A 1:1 Langmuir model of simultaneous fitting of kₒₙ and koff was used for kinetics analysis.

[9] = target: T1, recombinant BACE1 (BACE1 extracellular …); assay: SPR Biacore 8K, antibody captured, BACE1 analyte; remark: listed apart in the source
Description: as §1

[10] = target: cellular BACE1 in CHOK1-huAPP cells; assay: cell-based or functional assay; remark: listed apart in the source
human TfR [11] = target: T2, human TfR (human, UniProt P02786 89-760, limits assumed); assay: soft-randomization libraries selected on TfR
T2 construct: Protein coated on ELISA plates; also called human transferrin receptor protein 1

human TfR [12] = target: T2, human TfR; assay: ELISA, TfR coated, Fab-Fc fusion
Description: Binding ELISAs were conducted with purified Fab-Fc fusion variants with human or cyno TfR coated on the plate, as described above. The variants from the clone CH3C.18 maturation library, clone CH3C.3.2-1, clone CH3C.3.2-5, and clone CH3C.3.2-19, bound human and cyno TfR with approximately equivalent EC₅₀ values, whereas the parent clones CH3C.18 and CH3C.35 had greater than 10-fold better binding to human versus cyno TfR.

T1 sequence (P56817 22-457): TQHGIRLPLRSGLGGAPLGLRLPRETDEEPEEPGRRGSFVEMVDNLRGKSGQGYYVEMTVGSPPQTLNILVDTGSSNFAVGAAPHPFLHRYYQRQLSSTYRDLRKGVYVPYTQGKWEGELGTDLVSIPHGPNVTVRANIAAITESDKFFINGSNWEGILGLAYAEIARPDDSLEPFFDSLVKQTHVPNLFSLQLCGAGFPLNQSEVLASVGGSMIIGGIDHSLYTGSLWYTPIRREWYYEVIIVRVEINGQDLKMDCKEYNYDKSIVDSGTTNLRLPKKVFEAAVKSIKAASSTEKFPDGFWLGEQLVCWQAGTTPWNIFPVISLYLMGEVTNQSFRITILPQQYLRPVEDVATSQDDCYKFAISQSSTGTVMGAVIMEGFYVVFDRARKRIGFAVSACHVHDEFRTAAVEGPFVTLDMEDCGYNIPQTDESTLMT
T2 sequence (P02786 89-760 limits assumed): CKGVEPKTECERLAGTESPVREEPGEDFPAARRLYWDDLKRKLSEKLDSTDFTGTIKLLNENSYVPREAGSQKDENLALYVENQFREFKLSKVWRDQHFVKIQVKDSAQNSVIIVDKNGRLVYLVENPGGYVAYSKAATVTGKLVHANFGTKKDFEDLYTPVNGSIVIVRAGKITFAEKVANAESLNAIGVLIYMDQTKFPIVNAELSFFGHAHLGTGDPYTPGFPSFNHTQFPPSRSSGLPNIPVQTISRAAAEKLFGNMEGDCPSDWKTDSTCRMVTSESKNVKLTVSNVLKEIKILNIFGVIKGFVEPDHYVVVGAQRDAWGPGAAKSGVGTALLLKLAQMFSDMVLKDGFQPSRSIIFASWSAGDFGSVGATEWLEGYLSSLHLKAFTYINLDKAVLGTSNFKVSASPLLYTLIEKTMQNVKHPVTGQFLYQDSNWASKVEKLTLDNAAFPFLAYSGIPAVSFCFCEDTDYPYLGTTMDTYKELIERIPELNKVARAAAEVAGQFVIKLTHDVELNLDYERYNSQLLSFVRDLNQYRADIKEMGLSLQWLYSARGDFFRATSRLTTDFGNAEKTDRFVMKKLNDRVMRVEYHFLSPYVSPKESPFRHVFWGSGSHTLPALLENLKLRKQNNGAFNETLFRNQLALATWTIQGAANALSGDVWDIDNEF
Chain of BACE1 in primary human neurons (P56817 46-501): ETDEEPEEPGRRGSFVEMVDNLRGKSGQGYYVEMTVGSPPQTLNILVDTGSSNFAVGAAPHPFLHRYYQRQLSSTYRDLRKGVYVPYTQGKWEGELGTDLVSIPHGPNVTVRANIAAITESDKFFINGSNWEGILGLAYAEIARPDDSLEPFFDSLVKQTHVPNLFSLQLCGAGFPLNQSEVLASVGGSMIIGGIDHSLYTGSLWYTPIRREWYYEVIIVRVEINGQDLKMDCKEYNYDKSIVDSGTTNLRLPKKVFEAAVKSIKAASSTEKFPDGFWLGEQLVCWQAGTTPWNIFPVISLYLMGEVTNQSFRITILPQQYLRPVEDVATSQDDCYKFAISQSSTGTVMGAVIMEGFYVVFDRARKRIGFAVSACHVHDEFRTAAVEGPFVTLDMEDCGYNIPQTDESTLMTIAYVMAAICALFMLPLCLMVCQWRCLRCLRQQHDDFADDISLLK

cellular IC50 (human Aβ40, CHO-huAPP cells) [10]: 10 nM
B3: Clone35.23.4:2H8/2H8 (antibody, V domains shown)
VH: QVQLVQSGAEVKKPGASVKVSCKASGYTFTNFWIHWVRQAPGQGLEWMGMIDPSSSYTKYNQKFKARATLTVDTSTSTVYMELSSLRSEDTAVYYCARSGASLPYWGQGTLVTVSS
VL: DIQMTQSPSSLSASVGDRVTITCKASQDVGRNVAWYQQKPGKSPKSLIYSASHYYSGVPSRFSGSGSGTDFTLTISSLQPEDFATYFCQQYYSYPYTFGQGTKVEIK

Kd [2]: 12.1 nM
IC50 [6]: 22.1 nM
Max. % inhibition [6]: 91%
B4: hu2H8v17 (antibody, V domains shown)
VH: B3 VH with S55D, A101V, S102A, L103F
VL: B3 VL with S43A, Y54R, F87Y, Y92N
notes: humanized; also called hu2H8_HC6 + hu2H8_LC3

Kd [2]: 12.8 nM
IC50 [6]: 16.5 nM
Max. % inhibition [6]: 85%
B5: hu2H8v27 (antibody, V domains shown)
VH: B3 VH with V37L, S55D, A68V, L70M, V79T, A101V, S102A, L103F
VL: B3 VL with Y54R, Y92N
notes: humanized; also called hu2H8_HC3 + hu2H8_LC5

binding result (human TfR [11]): binds
B12: Clone CH3C.34 (designed binder)
chain: APELLGGPSVFLFPPKPKDTLMISRTPEVTCVVVDVSHEDPEVKFNWYVDGVEVHNAKTKPREEQYNSTYRVVSVLTVLHQDWLNGKEYKCKVSNKALPAPIEKTISKAKGQPREPQVYTLPPSRDELTKNQVSLTCLVKGFYPSDIAVEWESLGLVWVFSKTTPPVLDSDGSFFLYSKLTVPKSTWQQGWVFSCSVMHEALHNHYTQKSLSLSPGK
notes: modified Fc polypeptide

binding result (human TfR [12]): binds
B13: Clone CH3C.3.2-1 (designed binder)
chain: B12 chain with L156H, F160N, S161F
notes: modified Fc polypeptide; tested as purified Fab-Fc fusion, Fab not identified

binding result (human TfR [11]): binds
B14: Clone CH3C.51 (designed binder)
chain: B12 chain with L156H, F160G, S161Y, P183S, T186E
notes: modified Fc polypeptide

binding result (human TfR [11]): binds
B16: Clone CH3C.17 (designed binder)
chain: B12 chain with L154Y, L156T, V159S, F160K, S161Y, P183S, T186E, W191F
notes: modified Fc polypeptide

binding result (human TfR [11]): binds
B17: Clone CH3C.25 (designed binder)
chain: B12 chain with L154M, L156H, F160G, S161Y, P183D
notes: modified Fc polypeptide

Continued, binder first:

B1: 2H8 (antibody, human IgG1, V domains shown)
VH: EVQLQQSGPELVKPGASVKLSCKASGYTFTNFWIHWLKQRPGQGLEWIGMIDPSDSYTKYNQKFKAKATLTVDTSSSTTYMHLSSLTSEDSAVYYCARSGVAFPYWGQRTLVTVSA
VL: DIVMTQSQKFMSKSVGDTVSVTCKASQDVGRNVAWYQQKSGQSPKSLIYSASHRYSGVPDRFTGSGSGTDFTLTISNVQSEDLADYFCQQYNSYPYTFGGGTRLEIK
notes: chimeric, human IgG1/kappa; also called Clone 2H8; 2H8.01
Kd [1]: 14.8 nM
koff [1]: 0.000316 s⁻¹
kon [1]: 21400 M⁻¹ s⁻¹
Kd [2]: 14.8 nM
IC50 of Aβ40 formation, primary human neurons [3]: 15 nM
% Max Inhibition [4]: 71%
Cellular IC50 [4]: 16 nM
IC50 [5]: 25 nM
Max. % inhibition [5]: 82%
IC50 [6]: 24.8 nM
Max. % inhibition [6]: 82%
Kd [7]: 6.3 nM
koff [7]: 0.00019 s⁻¹
kon [7]: 30000 M⁻¹ s⁻¹

B2: hu2H8v29 (antibody, V domains shown)
VH: B3 VH with S55D, A101V, S102A, L103F
VL: B3 VL with Y54R, Y92N
notes: humanized; also called hu2H8_HC6 + hu2H8_LC5
Kd [2]: 12 nM
IC50 [6]: 14.8 nM
Max. % inhibition [6]: 86%
Kd [8]: 9.21 nM
Kd [9]: 9.21 nM

B6: hu2H8v29.10 (antibody, V domains shown)
VH: B3 VH with S55D, A101V, S102A, L103F
VL: B3 VL with Y54R
notes: captured via human Fc; also called hu2H8_HC6 + hu2H8_LC5.10
Kd [8]: 4.84 nM

B7: hu2H8v29.7 (antibody, V domains shown)
VH: B3 VH with S55D, A101V, S102A, L103F
VL: B3 VL with Y54R, Y92S
notes: captured via human Fc; also called hu2H8_HC6 + hu2H8_LC5.7
Kd [8]: 4.99 nM

B8: hu2H8v29.11 (antibody, V domains shown)
VH: B3 VH with S55D, A101V, S102A, L103F
VL: B3 VL with Y54R, P95A
notes: captured via human Fc; also called hu2H8_HC6 + hu2H8_LC5.11
Kd [8]: 4.83 nM

B9: hu2H8v29.8 (antibody, V domains shown)
VH: B3 VH with S55D, A101V, S102A, L103F
VL: B3 VL with Y54R, Y92Q
notes: captured via human Fc; also called hu2H8_HC6 + hu2H8_LC5.8
Kd [8]: 8.1 nM

B10: hu2H8v29.9 (antibody, V domains shown)
VH: B3 VH with S55D, A101V, S102A, L103F
VL: B3 VL with Y54R, Y92N, S93A
notes: captured via human Fc; also called hu2H8_HC6 + hu2H8_LC5.9
Kd [8]: 11 nM

B11: Clone CH3C.21 (designed binder)
chain: B12 chain with F160G, S161Y
notes: modified Fc polypeptide
binding result (human TfR [11]): binds

B15: Clone CH3C.44 (designed binder)
chain: B12 chain with L154Y, L156T, V157E, V159S, F160N, S161Y, P183S, T186E, W191F
notes: modified Fc polypeptide
binding result (human TfR [11]): binds
